Laboratory results reported in US20130251640A1 (METHODIST HOSPITAL SYSTEM, published 2013).
Non-standard residues stand in square brackets, D forms with d. *: point of attachment. Dnp = O=[N+]([O-])c1ccc(*)c([N+](=O)[O-])c1; Mca = COc1ccc2c(CC(=O)*)cc(=O)oc2c1

T1: Cathepsin E (purchased from Calbiochem, EMD Bioscience)
T1 sequence (P14091 whole entry, species assumed, looked up): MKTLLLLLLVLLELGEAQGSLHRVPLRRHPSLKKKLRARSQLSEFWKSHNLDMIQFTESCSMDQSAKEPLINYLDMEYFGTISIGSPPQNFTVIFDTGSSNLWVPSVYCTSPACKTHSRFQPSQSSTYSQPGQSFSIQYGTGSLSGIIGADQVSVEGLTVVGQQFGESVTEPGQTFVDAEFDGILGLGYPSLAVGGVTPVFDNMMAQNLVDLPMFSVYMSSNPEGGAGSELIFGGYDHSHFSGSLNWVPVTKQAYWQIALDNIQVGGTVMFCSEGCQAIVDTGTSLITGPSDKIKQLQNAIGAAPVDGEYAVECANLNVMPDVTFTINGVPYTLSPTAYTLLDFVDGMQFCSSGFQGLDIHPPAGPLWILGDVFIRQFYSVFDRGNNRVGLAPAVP


Tests used:
Assay in all cases: cell-based or functional assay
[1] = molecular target: T1, Cathepsin E (purchased from Calbiochem, …)
[2] = molecular target: Cathepsin S (purchased from Calbiochem, EMD Bioscience)
[3] = molecular target: Cathepsin B (purchased from Calbiochem, EMD Bioscience)

| net fluorescence signal ratio (Cath E/Cath D) immediately after incubation [1] [fold] | net fluorescence signal ratio (Cath E/Cath D) at 10 minutes [1] [fold] | net fluorescence signal ratio (Cath E/Cath D) at 45 minutes [1] [fold] | net fluorescence signal ratio (Cath E/Cath D) at the initial time point [1] [fold] | Binder | also measured |
| --- | --- | --- | --- | --- | --- |
| 1.6 |  |  |  | Mca-GPILFFRLGK(Dnp)[dR]-NH2 (SMILES CC[C@H](C)[C@H](NC(=O)[C@@H]1CCCN1C(=O)CNC(=O)Cc1cc(=O)oc2cc(OC)ccc12)C(=O)N[C@@H](CC(C)C)C(=O)N[C@@H](Cc1ccccc1)C(=O)N[C@@H](Cc1ccccc1)C(=O)N[C@@H](CCCNC(=N)N)C(=O)N[C@@H](CC(C)C)C(=O)NCC(=O)N[C@@H](CCCCNc1ccc([N+](=O)[O-])cc1[N+](=O)[O-])C(=O)N[C@H](CCCNC(=N)N)C(N)=O) [substrate b, Mca-Gly-Pro-Ile-Leu-Phe**Phe-Arg-Leu-Gly-Lys(Dnp)-DArg-CONH2] |  |
| 1.5 |  |  |  | Mca-GPILFFRLK(Dnp)[dR]-NH2 (SMILES CC[C@H](C)[C@H](NC(=O)[C@@H]1CCCN1C(=O)CNC(=O)Cc1cc(=O)oc2cc(OC)ccc12)C(=O)N[C@@H](CC(C)C)C(=O)N[C@@H](Cc1ccccc1)C(=O)N[C@@H](Cc1ccccc1)C(=O)N[C@@H](CCCNC(=N)N)C(=O)N[C@@H](CC(C)C)C(=O)N[C@@H](CCCCNc1ccc([N+](=O)[O-])cc1[N+](=O)[O-])C(=O)N[C@H](CCCNC(=N)N)C(N)=O) [substrate c, Mca-Gly-Pro-Ile-Leu-Phe**Phe-Arg-Leu-Lys(Dnp)-DArg-CONH2] |  |
|  | 4.5 | 1.6 | 17.9 | Mca-GSPAFLAK(Dnp)[dR]-NH2 (SMILES COc1ccc2c(CC(=O)NCC(=O)N[C@@H](CO)C(=O)N3CCC[C@H]3C(=O)N[C@@H](C)C(=O)N[C@@H](Cc3ccccc3)C(=O)N[C@@H](CC(C)C)C(=O)N[C@@H](C)C(=O)N[C@@H](CCCCNc3ccc([N+](=O)[O-])cc3[N+](=O)[O-])C(=O)N[C@H](CCCNC(=N)N)C(N)=O)cc(=O)oc2c1) [substrate a, Mca-Gly-Ser-Pro-Ala-Phe**Leu-Ala-Lys(Dnp)-DArg-CONH2] |  |
|  |  |  |  | Mca-AGFSLPAK(Dnp)[dR]-NH2 (SMILES COc1ccc2c(CC(=O)N[C@@H](C)C(=O)NCC(=O)N[C@@H](Cc3ccccc3)C(=O)N[C@@H](CO)C(=O)N[C@@H](CC(C)C)C(=O)N3CCC[C@H]3C(=O)N[C@@H](C)C(=O)N[C@@H](CCCCNc3ccc([N+](=O)[O-])cc3[N+](=O)[O-])C(=O)N[C@H](CCCNC(=N)N)C(N)=O)cc(=O)oc2c1) [substrate e, Mca-Ala-Gly-Phe-Ser-Leu**Pro-Ala-Lys(Dnp)-D-Arg-CONH2] | net fluorescence signal ratio (Cath E/Cath D) at 1 minute [1]: 265 fold; fluorescence signal increase relative to that observed with Cath E, 90 minutes [2]: < 15%; fluorescence signal increase relative to that observed with Cath E, 90 minutes [3]: < 15% |
|  | 4 | 2.3 | 12 | Mca-AGFSLGPK(Dnp)[dR]-NH2 (SMILES COc1ccc2c(CC(=O)N[C@@H](C)C(=O)NCC(=O)N[C@@H](Cc3ccccc3)C(=O)N[C@@H](CO)C(=O)N[C@@H](CC(C)C)C(=O)NCC(=O)N3CCC[C@H]3C(=O)N[C@@H](CCCCNc3ccc([N+](=O)[O-])cc3[N+](=O)[O-])C(=O)N[C@H](CCCNC(=N)N)C(N)=O)cc(=O)oc2c1) [substrate d, Mca-Ala-Gly-Phe-Ser-Leu**Gly-Pro-Lys(Dnp)-DArg-CONH2] |  |
